# Laboratory results: patent US20160068860A1, “TRANSGENIC PLANTS” (CONSEJO SUPERIOR DE INVESTIGACIONES CIENTIFICAS (CSIC), priority 2013, published 2016)
# Positions count from the first letter of the chain named. Names may count otherwise.
# B1: PYL4H82R V97A (AtPYL H82 and V97A) (receptor)
# chain: MLAVHRPSSAVSDGDSVQIPMMIASFQKRFPSLSRDSTAARFHTHEVGPNQCCSAVIQEISAPISTVWSVVRRFDNPQAYKRFLKSCSVIGGDGDNAGSLRQVHVVSGLPAASSTERLDILDDERHVISFSVVGGDHRLSNYRSVTTLHPSPISGTVVVESYVVDVPPGNTKEETCDFVDVIVRCNLQSLAKIAENTAAESKKKMSL
# notes: also called PYL4H82R (found combined with V97A)
# B2: PYL4A194T: AtPYL4 ABA receptor mutant polypeptide with A194T substitution (SEQ ID NO. 60; nucleic acid SEQ ID NO: 55); also over-expressed in plants (protein, listed as Arabidopsis thaliana)
# chain: B1 chain with R82H, A97V, A194T
# Experiments:
# [1] = system: Arabidopsis thaliana plants; assay: Seedling establishment and early seedling growth of OE lines on ABA; format: in vivo; conditions: for ABA-mediated inhibition of seedling establishment: 0.25 or 0.5 μM ABA; for ABA-mediated inhibition of shoot growth (early seedling growth): 0.25-0.5 μM ABA
# Text: PYL4 or PYL4 mutants were cloned into pCR8/GW/TOPO entry vector (Invitrogen) and recombined by LR reaction into the gateway compatible ALLIGATOR2 vector (Bensmihen et al., 2004). This construct drives expression of PYL4 under control of the 35S CaMV promoter and introduces a triple HA epitope at the N-terminus of the protein. Selection of transgenic lines is based on the visualization of GFP in seeds, whose expression is driven by the specific seed promoter At2S3. The ALLIGATOR2-35S:3HA-PYL4 or mutant constructs were transferred to Agrobacterium tumefaciens C58C1 (pGV2260) (Deblaere et al., 1985) by electroporation and used to transform Columbia wild type plants by the floral dip method. T1 transgenic seeds were selected based on GFP visualization and sowed in soil to obtain the T2 generation. At least three independent transgenic lines were generated for each construct. Homozygous T3 progeny was used for further studies and expression of HA-tagged protein in 21-d-old seedlings was verified by immunoblot analysis using anti-HA-peroxidase (Roche).
# After surface sterilization of the seeds, stratification was conducted in the dark at 4° C. for 3 d. Approximately 100 seeds of each genotype were sowed on MS plates supplemented with different ABA concentrations per experiment. To score seed germination, radical emergence was analyzed at 72 h after sowing. Seedling establishment was scored as the percentage of seeds that developed green expanded cotyledons and the first pair of true leaves at 7-d.
# [2] = system: Arabidopsis thaliana plants; assay: Whole-rosette stomatal conductance and transpiration measurements; format: in vivo; conditions: basal conditions; for stomatal conductance (Gst) and transpiration versus non-transformed Col: OE plants
# Procedure: The Arabidopsis whole-rosette gas exchange measurement device, plant growth practice and custom written program to calculate transpiration and Gst for water vapour have been described previously (Kollist et al. 2007; Vahisalu et al., 2008). For gas-exchange experiments, 25-28-d-old plants (rosette area 6-18 cm2) were used. Until measurements, plants were grown in growth chambers (AR-66LX and AR-22L, Percival Scientific, IA, USA) at 12/12 photoperiod, 23/18° C. temperature, air relative humidity of 70-80% and 150 μmol m-2 s-1 light. During gas exchange measurements, temperature, air relatively humidity, photoperiod and light in the cuvettes were kept as similar as possible to the
# values in growth chambers. Photographs of plants were taken before and after the experiment and rosette leaf area was calculated using the NIH software ImageJ 1.37v. Leaf area values for the intermediary experimental period were calculated using linear regression between starting and final leaf area.
# [3] = system: Arabidopsis thaliana plants; assay: Stomatal aperture by whole leaf imaging; format: in vivo; conditions: OE plants; steady-state conditions
# Procedure: 2-3 weeks-old seedlings grown in MS plates were used for water-loss assays. Four seedlings per genotype with similar growth, three independent experiments, were submitted to the drying atmosphere of a flow laminar hood. Kinetic analysis of waterloss was performed and represented as the percentage of initial fresh weight loss at each scored time point. Stomatal aperture measurements were done in leaves of 5-week-old plants grown under greenhouse conditions using whole leaf imaging (Chitrakar and Melotto, 2010). Staining of whole leaves with propidium iodide was conducted and the aperture of 30-40 stomata (ratio width/length, two independent experiments) was measured using a Leica TCS-SL confocal microscope.
# [4] = system: PP2CA; assay: Yeast two hybrid (Y2H) growth assay with PP2CA; format: cell-based, Arabidopsis; conditions: absence of ABA; growth on medium lacking His and Ade
# Procedure: We conducted error-prone PCR mutagenesis by amplification of the PYL4 open reading frame using the following primers: FPYL4Ncol, 5″-GCAGCAGCCATGGTTGCCG TTCACCGTCCTTCT and RPYL4EcoRIstop: […] TCT TCTTCTT, and the following conditions: 2 mM dGTP, dCTP and dTTP, 0.5 mM dATP, 12 mM MgCl2 and Taq polymerase. The PCR product was Ncol-EcoRI doubly digested, cloned into the pGBKT7 vector and DH10B cells were transformed by electroporation. Thus, we generated an allele library in E. coli of approximately 10,000 PYL4 mutant clones. […] The library was shuttled to yeast AH109 by co-transformation with pGAD7-PP2CA. Yeast transformants were pooled and clones able to grow in the absence of exogenous ABA in medium lacking histidine and adenine were selected. Yeast plasmids were extracted, sequenced and retransformed in yeast cells to recapitulate the phenotype. Protocols for yeast two hybrid assays were similar to those described previously (Saez et al., 2008).
# [5] = system: Arabidopsis thaliana plants; assay: Drought stress under greenhouse conditions; format: in vivo; conditions: for survival after drought stress: OE lines, watering resumed at 19-d, scored at 23-d
# Procedure: Plants grown under greenhouse conditions (10 individuals per experiment, three independent experiments) were grown under normal watering conditions for 15 days and then subjected to drought stress by stopping irrigation during 20 days. Next, watering was resumed and survival rate was calculated after 3 days by counting the percentage of plants that had more than four green leaves. Photographs were taken at the start of the experiment (day 0), after 16 and 19 days of drought, and 3 days after rewatering. Shoot-growth and water-loss were measured as follows. Quantification of shoot-growth was performed at 2, 5, 7 and 9 d after stopping irrigation (day 0) by measuring the maximum rosette radius of the plants. Water-loss measurements were done in two leaves from each plant that were detached 11 d after the start of the experiment, next weighted, incubated in de-mineralized water for 3 h and weighed again. The difference in weight was considered as water loss and related to the initial fresh weight (μl H2O/g FW).
# [6] = system: Arabidopsis thaliana plants; assay: Dehydration treatment of seedlings in laminar flow hood; format: in vivo; conditions: OE plants; 15-d-old seedlings, 12 h of dehydration, scored 3-d afterwards
# Procedure: 2-weeks-old seedlings grown in MS plates were used for these experiments. Twenty seedlings per genotype (two independent experiments) were submitted to the drying atmosphere of a flow laminar hood for 12 hours (25° C.±1° C., 25%±2% relative humidity), then rehydrated with 25 ml of water. Survival percentage was scored 3 days after rehydration by counting the percentage of plants that had at least four green leaves.
molecule,measurement,setting,value
"PYL4: AtPYL4 wild type ABA receptor polypeptide (SEQ ID NO:3, At2g38310) [reference compound]",ABA-mediated inhibition of seedling establishment,[1],enhanced ABA-mediated inhibition of seedling establishment compared to non-transformed plants
same,stomatal conductance (Gst) and transpiration versus non-transformed Col,[2],lower Gst and transpiration values than non-transformed Col plants
same,stomatal aperture,[3],more closed than those of non-transformed Col plants
same,interaction with PP2CA in Y2H assay,[4],ABA-dependent manner
same,survival after drought stress,[5],around 30%
B1,ABA-mediated inhibition of shoot growth (early seedling growth),[1],higher sensitivity to ABA-mediated inhibition of shoot growth than PYL4 OE plants
same,ABA-mediated inhibition of seedling establishment,[1],higher sensitivity to ABA-mediated inhibition of seedling establishment than PYL4 OE plants
same,survival after dehydration followed by rehydration,[6],~25%
same,interaction with PP2CA in Y2H assay,[4],ABA-independent interaction with PP2CA
B2,ABA-mediated inhibition of shoot growth (early seedling growth),[1],higher sensitivity to ABA-mediated inhibition of shoot growth than PYL4 OE plants
same,ABA-mediated inhibition of seedling establishment,[1],higher sensitivity to ABA-mediated inhibition of seedling establishment than PYL4 OE plants
same,survival after dehydration followed by rehydration,[6],approximately 40%
same,stomatal conductance (Gst) and transpiration versus non-transformed Col,[2],lower Gst and transpiration values than non-transformed Col plants
same,stomatal conductance (Gst) versus PYL4 OE plants,[2],lower Gst values than PYL4 OE plants
same,stomatal aperture,[3],more closed than those of non-transformed Col plants
same,interaction with PP2CA in Y2H assay,[4],enhanced the interaction of PYL4 and PP2CA in the absence of ABA
same,survival after drought stress,[5],60-70%
same,plant growth (rosette radius) during drought,"[5]; OE plants, subsequent 5-d after irrigation stopped",plant growth was reduced in non-transformed Col and PYL4 OE plants compared to PYL4A194T OE plants
